Paper PMC10397247

Assays:
[1] = molecular target: T1, 4H3112-bA; assay: two-hybrid library CCNG1;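 also: natural log of median RNA to DNA barcode read ratio; higher means stronger binding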
T1 chain: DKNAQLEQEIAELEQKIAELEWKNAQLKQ

[2] = molecular target: T2, 4H3427-bA; assay: two-hybrid library CCNG1;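 also: natural log of median RNA to DNA barcode read ratio; higher means stronger binding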
T2 chain: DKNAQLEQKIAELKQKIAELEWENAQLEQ

[3] = molecular target: T3, 4H687-bA; assay: two-hybrid library CCNG1;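 also: natural log of median RNA to DNA barcode read ratio; higher means stronger binding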
T3 chain: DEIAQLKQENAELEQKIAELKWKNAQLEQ

[4] = molecular target: T4, 4H454-bA; assay: two-hybrid library CCNG1;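 also: natural log of median RNA to DNA barcode read ratio; higher means stronger binding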
T4 chain: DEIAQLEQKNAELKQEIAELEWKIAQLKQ

[5] = molecular target: T5, 4H3782-bA; assay: two-hybrid library CCNG1;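 also: natural log of median RNA to DNA barcode read ratio; higher means stronger binding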
T5 chain: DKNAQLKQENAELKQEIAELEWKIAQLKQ

[6] = molecular target: T6, 4H754-bA; assay: two-hybrid library CCNG1;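 also: natural log of median RNA to DNA barcode read ratio; higher means stronger binding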
T6 chain: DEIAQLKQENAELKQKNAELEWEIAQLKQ

[7] = molecular target: T7, 4H331-bA; assay: two-hybrid library CCNG1
T7 chain: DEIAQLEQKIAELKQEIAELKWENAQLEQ

[8] = molecular target: T8, 4H3855-bA; assay: two-hybrid library CCNG1
T8 chain: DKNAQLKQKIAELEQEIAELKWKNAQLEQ

[9] = molecular target: T9, 4H883-bA; assay: two-hybrid library CCNG1
T9 chain: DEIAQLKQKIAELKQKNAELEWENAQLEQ

[10] = molecular target: T10, 4H338-bA; assay: two-hybrid library CCNG1
T10 chain: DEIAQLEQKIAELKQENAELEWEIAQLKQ

[11] = molecular target: T11, 4H568-bA; assay: two-hybrid library CCNG1
T11 chain: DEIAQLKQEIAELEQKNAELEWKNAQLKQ

[12] = molecular target: T12, 4H2729-bA; assay: two-hybrid library CCNG1
T12 chain: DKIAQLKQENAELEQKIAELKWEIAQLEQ

[13] = molecular target: T13, 4H72-bA; assay: two-hybrid library CCNG1
T13 chain: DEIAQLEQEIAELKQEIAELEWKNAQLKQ

[14] = molecular target: T14, 4H3843-bA; assay: two-hybrid library CCNG1
T14 chain: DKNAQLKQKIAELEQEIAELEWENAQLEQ

[15] = molecular target: T15, 4H3297-bA; assay: two-hybrid library CCNG1
T15 chain: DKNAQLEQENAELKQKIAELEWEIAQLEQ

[16] = molecular target: T16, 4H462-bA; assay: two-hybrid library CCNG1
T16 chain: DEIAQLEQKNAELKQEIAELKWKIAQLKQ

[17] = molecular target: T17, 4H918-bA; assay: two-hybrid library CCNG1
T17 chain: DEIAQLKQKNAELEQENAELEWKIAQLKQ

[18] = molecular target: T18, 4H908-bA; assay: two-hybrid library CCNG1
T18 chain: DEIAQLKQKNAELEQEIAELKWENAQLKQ

[19] = molecular target: T19, 4H607-bA; assay: two-hybrid library CCNG1
T19 chain: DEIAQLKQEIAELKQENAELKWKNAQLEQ

[20] = molecular target: T20, 4H967-bA; assay: two-hybrid library CCNG1
T20 chain: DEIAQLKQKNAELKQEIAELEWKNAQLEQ

[21] = molecular target: T21, 4H3189-bA; assay: two-hybrid library CCNG1
T21 chain: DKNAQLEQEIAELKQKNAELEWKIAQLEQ

[22] = molecular target: T22, 4H3185-bA; assay: two-hybrid library CCNG1
T22 chain: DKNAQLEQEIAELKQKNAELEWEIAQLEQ

[23] = molecular target: T23, 4H953-bA; assay: two-hybrid library CCNG1
T23 chain: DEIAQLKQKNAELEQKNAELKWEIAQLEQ

[24] = molecular target: T24, 4H3606-bA; assay: two-hybrid library CCNG1
T24 chain: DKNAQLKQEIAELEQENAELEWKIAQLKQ

[25] = molecular target: T25, 4H2667-bA; assay: two-hybrid library CCNG1
T25 chain: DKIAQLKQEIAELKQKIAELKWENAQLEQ

[26] = molecular target: T26, 4H3926-bH; assay: two-hybrid library CCNG1
T26 chain: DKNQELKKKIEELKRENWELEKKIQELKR

[27] = molecular target: T27, 4H717-bA; assay: two-hybrid library CCNG1
T27 chain: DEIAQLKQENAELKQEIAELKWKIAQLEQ

[28] = molecular target: T28, P4A-bS; assay: two-hybrid library CCNG1
T28 chain: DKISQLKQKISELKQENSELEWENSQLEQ

[29] = molecular target: T29, 4H3354-bA; assay: two-hybrid library CCNG1
T29 chain: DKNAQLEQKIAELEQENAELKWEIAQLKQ

[30] = molecular target: T30, 4H370-bA; assay: two-hybrid library CCNG1
T30 chain: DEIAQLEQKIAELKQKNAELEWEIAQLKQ

[31] = molecular target: T31, 4H4001-bA; assay: two-hybrid library CCNG1
T31 chain: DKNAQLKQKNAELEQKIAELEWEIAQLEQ

[32] = molecular target: T32, 4H2697-bA; assay: two-hybrid library CCNG1
T32 chain: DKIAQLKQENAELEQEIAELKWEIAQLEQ

[33] = molecular target: T33, 4H797-bA; assay: two-hybrid library CCNG1
T33 chain: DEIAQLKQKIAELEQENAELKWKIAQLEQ

[34] = molecular target: T34, P9A-bS; assay: two-hybrid library CCNG1
T34 chain: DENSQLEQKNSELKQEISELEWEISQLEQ

[35] = molecular target: T35, P6A-bS; assay: two-hybrid library CCNG1
T35 chain: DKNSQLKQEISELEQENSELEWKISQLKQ

[36] = molecular target: T36, P5A-bS; assay: two-hybrid library CCNG1
T36 chain: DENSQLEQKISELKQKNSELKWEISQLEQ

[37] = molecular target: T37, P7A-bS; assay: two-hybrid library CCNG1
T37 chain: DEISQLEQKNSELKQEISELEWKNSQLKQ

[38] = molecular target: T38, P8A-bS; assay: two-hybrid library CCNG1
T38 chain: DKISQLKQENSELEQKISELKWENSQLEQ

[39] = molecular target: T39, 4H968-bH; assay: two-hybrid library CCNG1
T39 chain: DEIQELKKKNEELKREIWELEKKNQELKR

[40] = molecular target: T40, 4H953-bH; assay: two-hybrid library CCNG1
T40 chain: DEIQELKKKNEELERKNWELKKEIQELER

[41] = molecular target: T41, 4H855-bH; assay: two-hybrid library CCNG1
T41 chain: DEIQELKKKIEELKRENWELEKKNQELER

[42] = molecular target: T42, 4H918-bH; assay: two-hybrid library CCNG1
T42 chain: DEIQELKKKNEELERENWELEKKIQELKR

[43] = molecular target: T43, P4A-bN; assay: two-hybrid library CCNG1
T43 chain: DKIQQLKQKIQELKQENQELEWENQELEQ

[44] = molecular target: T44, P9A-bN; assay: two-hybrid library CCNG1
T44 chain: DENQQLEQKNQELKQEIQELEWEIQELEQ

[45] = molecular target: T45, P8A-bN; assay: two-hybrid library CCNG1
T45 chain: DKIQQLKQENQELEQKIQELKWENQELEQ

[46] = molecular target: T46, P6A-bN; assay: two-hybrid library CCNG1
T46 chain: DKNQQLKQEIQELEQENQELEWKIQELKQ

[47] = molecular target: T47, P7A-bN; assay: two-hybrid library CCNG1
T47 chain: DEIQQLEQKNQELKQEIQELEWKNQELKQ

[48] = molecular target: T48, 4H55-AA; assay: two-hybrid library CCmax; settings: mean of both orientations
T48 chain: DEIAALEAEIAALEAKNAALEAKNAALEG

[49] = molecular target: T49, 4H2608-AA; assay: two-hybrid library CCmax; settings: mean of both orientations
T49 chain: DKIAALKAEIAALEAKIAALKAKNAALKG

[50] = molecular target: T50, 4H2513-AA; assay: two-hybrid library CCmax; settings: mean of both orientations
T50 chain: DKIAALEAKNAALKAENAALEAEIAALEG

[51] = molecular target: T51, 4H327-AA; assay: two-hybrid library CCmax; settings: mean of both orientations
T51 chain: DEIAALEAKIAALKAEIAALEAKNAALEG

[52] = molecular target: T52, 4H2726-AA; assay: two-hybrid library CCmax; settings: mean of both orientations
T52 chain: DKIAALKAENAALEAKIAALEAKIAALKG

[53] = molecular target: T53, 4H369-AA; assay: two-hybrid library CCmax; settings: mean of both orientations
T53 chain: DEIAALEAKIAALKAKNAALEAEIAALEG

[54] = molecular target: T54, 4H481-AA; assay: two-hybrid library CCmax; settings: mean of both orientations
T54 chain: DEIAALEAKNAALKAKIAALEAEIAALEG

[55] = molecular target: T55, 4H662-AA; assay: two-hybrid library CCmax; settings: mean of both orientations
T55 chain: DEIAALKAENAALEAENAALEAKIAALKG

[56] = molecular target: T56, 4H3625-AA; assay: two-hybrid library CCmax; settings: mean of both orientations
T56 chain: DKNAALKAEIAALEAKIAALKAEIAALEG

[57] = molecular target: T57, 4H2238-AA; assay: two-hybrid library CCmax
T57 chain: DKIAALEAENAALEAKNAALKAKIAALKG

[58] = molecular target: T58, 4H3605-AA; assay: two-hybrid library CCmax; settings: mean of both orientations
T58 chain: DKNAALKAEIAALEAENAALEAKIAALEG

[59] = molecular target: T59, 4H2935-AA; assay: two-hybrid library CCmax; settings: mean of both orientations
T59 chain: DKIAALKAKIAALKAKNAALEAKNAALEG

[60] = molecular target: T60, 4H2536-AA; assay: two-hybrid library CCmax; settings: mean of both orientations
T60 chain: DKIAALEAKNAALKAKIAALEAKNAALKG

[61] = molecular target: T61, 4H3922-AA; assay: two-hybrid library CCmax; settings: mean of both orientations
T61 chain: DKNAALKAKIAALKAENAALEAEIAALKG

[62] = molecular target: T62, 4H2614-AA; assay: two-hybrid library CCmax; settings: mean of both orientations
T62 chain: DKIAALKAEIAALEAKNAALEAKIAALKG

[63] = molecular target: T63, 4H4033-AA; assay: two-hybrid library CCmax; settings: mean of both orientations
T63 chain: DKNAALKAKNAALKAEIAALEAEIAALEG

[64] = molecular target: T64, 4H3664-AA; assay: two-hybrid library CCmax; settings: mean of both orientations
T64 chain: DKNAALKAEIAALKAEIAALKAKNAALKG

B1: 4H2667-bA (peptide)
chain: DKIAQLKQEIAELKQKIAELKWENAQLEQ
[1]
  interaction score: 0.96
[2]
  interaction score: 0.719
[3]
  interaction score: -1.37
[4]
  interaction score: 1.25
[5]
  interaction score: -0.43
[6]
  interaction score: -1.06
[7]
  interaction score: 0.846
[8]
  interaction score: -0.565
[9]
  interaction score: -0.985
[10]
  interaction score: 0.164
[11]
  interaction score: 0.688
[12]
  interaction score: 0.719
[13]
  interaction score: 0.976
[14]
  interaction score: 1.49
[15]
  interaction score: 0.0617
[16]
  interaction score: -0.172
[17]
  interaction score: -1.68
[18]
  interaction score: -0.691
[19]
  interaction score: -1.24
[20]
  interaction score: -1.08
[21]
  interaction score: -0.909
[22]
  interaction score: -0.669
[23]
  interaction score: -0.966
[24]
  interaction score: 0.0163
[25]
  interaction score: 0.263
[26]
  interaction score: -1.75
[27]
  interaction score: -1.61
[28]
  interaction score: -1.72
[29]
  interaction score: -0.643
[30]
  interaction score: -0.0583
[31]
  interaction score: 1.02
[32]
  interaction score: 0.478
[33]
  interaction score: -1.09

B2: P4A-bS (peptide)
chain: DKISQLKQKISELKQENSELEWENSQLEQ
[34]
  interaction score: -2
[35]
  interaction score: -1.51
[36]
  interaction score: -0.436
[28]
  interaction score: -1.08
[37]
  interaction score: -0.905
[38]
  interaction score: -0.866

B3: 4H855-bH (peptide)
chain: DEIQELKKKIEELKRENWELEKKNQELER
[39]
  interaction score: 0.133
[40]
  interaction score: -1.14
[41]
  interaction score: -0.389
[42]
  interaction score: -0.637
[43]
  interaction score: -0.185

B4: P4A-bN (peptide)
chain: DKIQQLKQKIQELKQENQELEWENQELEQ
[44]
  interaction score: -0.681
[45]
  interaction score: -0.841
[46]
  interaction score: -1.54
[47]
  interaction score: -1.45
[43]
  interaction score: -1.26

B5: 4H2238-AA (peptide)
chain: DKIAALEAENAALEAKNAALKAKIAALKG
[48]
  interaction score: -1.77
[49]
  interaction score: -1.6
[50]
  interaction score: 2.15
[51]
  interaction score: -0.966
[52]
  interaction score: -0.445
[53]
  interaction score: 2.28
[54]
  interaction score: 1.84
[55]
  interaction score: 1.18
[56]
  interaction score: -1.18
[57]
  interaction score: -0.902
[58]
  interaction score: -0.657
[59]
  interaction score: -1.18
[60]
  interaction score: -1.01
[61]
  interaction score: 1.59
[62]
  interaction score: -1.25
[63]
  interaction score: 1.31
[64]
  interaction score: -1.15
